In the supplement of paper PMC10126150:
± gives the standard deviation of the averaged measurements.

system: ATP; assay: switch fluorescence ratio, 500 uM ATP over buffer (Cy3 cluster intensity, sum of 5 cycles each) (fold (ratio)); higher = stronger signal-on switching upon ATP binding; sequences stand for … in TCGTCGGCAGCGTCAGATGTGTATAAGAGACAGTTTTTTTTTTTTTTTTTTTTTTTTT…TC; conditions: aptamer strand: ATP DNA aptamer (quencher-CACCTGGGGGAGTATTGCGGAGGAAGG + anchor), 100 nM annealed; ATP concentration: 500 uM
Method in brief: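 The fluorescence ratio divides summed target-cycle Cy3 intensity by summed buffer-cycle Cy3 intensity for each cluster and is averaged per switch-domain sequence. Cy3-labelled switching-strand clusters on a modified Illumina MiSeq flow-cell were annealed to 100 nM quencher-labelled ATP aptamer, then imaged in selection buffer and again after 15 min with 500 uM ATP at 22 °C. Five such cycles were run, with NaOH stripping and re-annealing between them, and clusters outside 100-1000 RFU were excluded.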
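Further: ATP exposure 15 min at 22 °C before imaging.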

Sequence | switch fluorescence ratio
CTGGGGTGTG | 1.01 ± 0.039
CTGGGTAGGC | 0.992 ± 0.018
CTGGGTATAG | 1.02 ± 0.032
CTGGGTATTC | 1.03 ± 0.032
CTGGGTCACA | 1.02 ± 0.011
CTGGGTCGGC | 0.965 ± 0.04
CTGGGTTCCT | 1.02 ± 0.024
CTGGGTTGTT | 1.0204 ± 0.00077
CTGGGTTTAA | 1.02 ± 0.013
CTGGGTTTTT | 0.992 ± 0.03
CTGGTAACCG | 1 ± 0.06
CTGGTAGACT | 0.992 ± 0.023
CTGGTCCGGA | 0.948 ± 0.0035
CTGGTCGCGT | 0.9873 ± 0.0081
CTGGTGAGGG | 0.9931 ± 0.0091
CTGGTGGTTT | 1.01 ± 0.0047
CTGGTGTCAC | 1.01 ± 0.029
CTGGTGTTCT | 1.01 ± 0.017
CTGGTTCAGG | 1.026 ± 0.0082
CTGGTTCGTC | 1.005 ± 0.0071
CTGGTTGGGG | 1 ± 0.017
CTGGTTTTAT | 0.9823 ± 0.009
CTGGTTTTCG | 1 ± 0.021
CTGGTTTTTT | 0.99 ± 0.01
CTGTAATGGT | 1.04 ± 0.061
CTGTAGATTG | 0.983 ± 0.019

Sequence | switch fluorescence ratio
CTGTATAAGT | 0.985 ± 0.015
CTGTCCATCC | 1.11 ± 0.035
CTGTGATGG | 1.0776 ± 0.00079
CTGTGCGCCA | 1.122 ± 0.0038
CTGTGGCCGG | 0.967 ± 0.017
CTGTGGGCTG | 0.989 ± 0.04
CTGTGGGGGG | 0.9869 ± 0.0097
CTGTGGGTAG | 1.03 ± 0.021
CTGTGGGTTT | 1.01 ± 0.026
CTGTGTGCAC | 1 ± 0.066
CTGTTCTGTG | 0.951 ± 0.033
CTGTTGGAAG | 0.969 ± 0.012
CTGTTGTTG | 1 ± 0.01
CTGTTTACTG | 0.987 ± 0.014
CTTAAATGTA | 0.982 ± 0.021
CTTAATCACT | 1.03 ± 0.083
CTTAATTTTT | 0.98 ± 0.032
CTTACGTGTG | 1.03 ± 0.034
CTTACGTTAT | 1.13 ± 0.036
CTTACTCTTT | 1.0258 ± 0.00043
CTTAGAAGCA | 0.9943 ± 0.0017
CTTAGAAGTT | 1.01 ± 0.027
CTTAGATAGT | 1.01 ± 0.0098
CTTAGATATT | 1.01 ± 0.045
CTTAGATGGG | 0.9579 ± 0.0064
CTTAGGACAG | 1.01 ± 0.035

Sequence | switch fluorescence ratio
CTTAGGGCGA | 0.9728 ± 0.001
CTTAGGGGTC | 0.997 ± 0.026
CTTAGGGTGT | 0.964 ± 0.04
CTTAGTCGGC | 0.967 ± 0.015
CTTATAATTT | 0.9947 ± 0.0082
CTTATAGCAT | 1.096 ± 0.0085
CTTATAGTAG | 0.9847 ± 0.0066
CTTATATGAG | 1.001 ± 0.0025
CTTATGAAGG | 0.989 ± 0.024
CTTATGAGCA | 1.038 ± 0.0023
CTTATTGGGT | 0.993 ± 0.011
CTTCAATTAT | 1.01 ± 0.029
CTTCAGGGGA | 1.01 ± 0.061
CTTCATAGAT | 1.02 ± 0.016
CTTCGCCTTT | 1.06 ± 0.016
CTTCGGAGTG | 1.02 ± 0.023
CTTCGGTGTG | 1.04 ± 0.13
CTTCGTATGG | 1 ± 0.029
CTTCTAGGGG | 1.05 ± 0.011
CTTCTATGTT | 0.984 ± 0.002
CTTCTGTGGG | 1.027 ± 0.0036
CTTCTTAAGA | 0.984 ± 0.046
CTTCTTGCTG | 0.972 ± 0.011
CTTGAAAGGG | 0.997 ± 0.02
CTTGAATACT | 1.05 ± 0.03
CTTGACAAGG | 0.982 ± 0.014

Sequence | switch fluorescence ratio
CTTGACATGT | 0.976 ± 0.016
CTTGAGGGGG | 1.04 ± 0.092
CTTGATGCAG | 0.996 ± 0.053
CTTGATTTGA | 1.001 ± 0.0089
CTTGCATTTT | 1.04 ± 0.031
CTTGCCGCGC | 1.13 ± 0.017
CTTGCGTCAC | 1.18 ± 0.044
CTTGCTGGTT | 0.999 ± 0.028
CTTGGAGGGA | 1.02 ± 0.03
CTTGGAGTTT | 1 ± 0.034
CTTGGGAATT | 0.979 ± 0.044
CTTGGGAGAA | 0.9961 ± 0.0032
CTTGGGCCCT | 0.979 ± 0.033
CTTGGGTTGG | 0.997 ± 0.028
CTTGGTCTGA | 0.994 ± 0.024
CTTGGTGGAC | 0.97 ± 0.048
CTTGGTTAGT | 1.03 ± 0.056
CTTGTAAAGG | 0.9825 ± 0.00043
CTTGTAGGGT | 1.01 ± 0.021
CTTGTATCGT | 0.971 ± 0.015
CTTGTATTGG | 1.03 ± 0.072
CTTGTCATGA | 1.02 ± 0.017
CTTGTTATTG | 0.9602 ± 0.0071
CTTGTTGATG | 1 ± 0.036
CTTGTTGTTC | 0.9981 ± 0.0063
CTTTAATCC | 1.27 ± 0.48

Sequence | switch fluorescence ratio
CTTTCATTTT | 0.972 ± 0.036
CTTTCCGAAG | 2.72 ± 0.03
CTTTCGTCTG | 1.01 ± 0.035
CTTTCGTGGA | 1 ± 0.022
CTTTCTAGCG | 0.995 ± 0.032
CTTTCTATGT | 0.986 ± 0.029
CTTTCTTG | 1.01 ± 0.043
CTTTGAATGT | 0.983 ± 0.03
CTTTGAGGTG | 1.04 ± 0.069
CTTTGGCAGA | 1.03 ± 0.043
CTTTGGCAGC | 1.06 ± 0.017
CTTTGGCCGG | 1.011 ± 0.0087
CTTTGGCGCC | 0.986 ± 0.014
CTTTGGCTGA | 0.998 ± 0.025
CTTTGGGGTT | 1.01 ± 0.032
CTTTGTTGG | 0.9646 ± 0.0024
CTTTTAATTT | 1.04 ± 0.022
CTTTTAGCTG | 1 ± 0.019
CTTTTAGGCT | 1.02 ± 0.092
CTTTTAGTTA | 1.01 ± 0.015
CTTTTATTTT | 1.03 ± 0.012
CTTTTCATTG | 1.06 ± 0.089
CTTTTCGGCT | 1.04 ± 0.028
CTTTTCGGGT | 0.964 ± 0.033
CTTTTCTTGG | 0.991 ± 0.03
CTTTTGACTG | 1.05 ± 0.043

Sequence | switch fluorescence ratio
CTTTTGGGAC | 0.987 ± 0.025
CTTTTTAATG | 0.98 ± 0.028
CTTTTTAGGT | 0.998 ± 0.012
CTTTTTTATT | 1.01 ± 0.0085
CTTTTTTGGT | 1.03 ± 0.015
CTTTTTTTAG | 1.0383 ± 0.001
CTTTTTTTGT | 0.995 ± 0.025
GAAAAAAGGG | 1.11 ± 0.11
GAAAAAATCC | 1.29 ± 0.34
GAAAAAGCCG | 1.014 ± 0.0078
GAAAAAGGAA | 1.024 ± 0.0041
GAAAAAGGGG | 1.01 ± 0.019
GAAAAATTGG | 1.03 ± 0.03
GAAAACGGGG | 1.01 ± 0.02
GAAAAGGTTC | 1.04 ± 0.044
GAAAATGCAT | 0.99 ± 0.013
GAAAATGTCG | 0.988 ± 0.07
GAAAATGTTG | 0.991 ± 0.033
GAAACAATTG | 0.9897 ± 0.0075
GAAACAGGCA | 0.963 ± 0.017
GAAACAGGGA | 1.06 ± 0.057
GAAACATACG | 1.33 ± 0.026
GAAAGATAAG | 0.985 ± 0.014
